# In paper PMC3145792:
# Biological target: SECRET domain (smallpox virus-encoded chemokine receptor domain) of the vTNFR CrmD encoded by ectrom (ectromelia virus)
# Test: crystal structure
substance,measurement,value
chemokine domain of human CX3CL1 (residues 1-76) (from UniProt P78423 25-100) (domain or fragment),stoichiometry N,1
